# What was measured:
# [1] = biological target: VRC01 UCA; assay: BLI; settings: read at the end of association (300 s), read off a plot
# [2] = biological target: VRC01 UCA (human); assay: SPR
# VRC01 UCA (human), sequence (heavy, as listed by the source, chain 1 of 2): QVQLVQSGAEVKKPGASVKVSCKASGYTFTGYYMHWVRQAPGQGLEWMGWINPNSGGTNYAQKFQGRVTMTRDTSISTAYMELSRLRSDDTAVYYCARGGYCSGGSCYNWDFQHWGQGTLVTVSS
# VRC01 UCA (human), sequence (light, as listed by the source, chain 2 of 2): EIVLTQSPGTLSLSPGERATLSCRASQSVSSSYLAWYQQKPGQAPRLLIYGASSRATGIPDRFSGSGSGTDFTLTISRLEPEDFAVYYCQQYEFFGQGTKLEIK
substance,measurement,setting,value
TM4ΔV1-3 (24-mer) D268R; E370A,response,"[1]; VRC01 UCA IgG x 24-mer, parent: est. 0.68",0 nm
TM4ΔV1-3 (monomer) (domain or fragment),Kd,[2],> 100000 nM
TM4ΔV1-3 (heptamer) D368R; E370A,response,"[1]; VRC01 UCA IgG x heptamer, parent: est. 0.43",0 nm
BG505 SOSIP v4.1-GT1 trimer (from UniProt Q2N0S6 1-860) (complex),Kd,[2],3000 nM
same,koff,[2],0.018 s⁻¹
same,kon,[2],8000 M⁻¹ s⁻¹

# From article PMC6303191
